Results from patent US12312641B2, “Sensitivity marker for antibody-drug conjugate” (priority 2018, dated 2025).

Test system: patient-derived xenograft (PDX) model
Assay: Anti-tumor effect (TGI) in patient-derived xenograft models, 10 to 15 days after administration
Assay type: in vivo, nu/nu mice
Settings: for TGI (%): 10 mg/kg tail vein; for Proportion of PDX models showing TGI of 75% or more: TGI at 10 to 15 days
Procedure: Mice: Female nu/nu mice (Envigo) aged 5-8 weeks were acclimatized under SPF conditions for 3 days or more prior to experimental use. Mice were fed with sterile solid feed (Teklad2919, Envigo) and given reverse osmosis membrane-treated water (containing 2 ppm chlorine).
Measurements and Calculation formula: long and short diameters of tumors were measured twice a week with an electronic digital caliper (CD-6PMX, Mitutoyo Corp.) and tumor volume (mm^3) was calculated using the following calculation formula: Tumor volume (mm^3)=0.52×Long diameter (mm)×[Short diameter (mm)]^2
Tumor fragments from each cancer patient were subcutaneously implanted into mice and passaged. The obtained tumors were used to subcutaneously implant tumor fragments, which were cut to approximately 5×5×5 mm^3, into the left abdomen of female nu/nu mice, thereby each patient-derived xenograft (PDX) model was created. Mice were randomly grouped when the mean transplanted tumor volume reached 150 to 300 mm^3 (Day 0). On the same day as grouping, the antibody-drug conjugate (1) was administered into the tail vein at a dose of 10 mg/kg. A formulation buffer was similarly administered at a volume of 10 mL/kg as a negative control.
Data on the amount of gene expression in each PDX model used in Example 4 were obtained by the next-generation RNA sequencing method using RNA extracted from formalin-fixed paraffin-embedded specimens of each tumor. After the obtained data were normalized to a FPKM value, 1 was added to FPKM, and the sum was transformed to a logarithmic (log2) to obtain a log2[FPKM+1] value (Table 6). The log2[FPKM+1] value was used to analyze the relationship between the anti-tumor activity of antibody-drug conjugate (1) in each PDX model (Table 5) and the amount of expression of the hTROP2 gene and the SLFN11 gene.

B1: antibody-drug conjugate (1): humanized anti-hTROP2 antibody (SEQ ID NO: 1 residues 20-470, SEQ ID NO: 2 residues 21-234) conjugated to the exatecan-derivative drug-linker via a thioether bond (conjugate, chains of the INN, looked up)
VH: QVQLVQSGAEVKKPGASVKVSCKASGYTFTTAGMQWVRQAPGQGLEWMGWINTHSGVPKYAEDFKGRVTISADTSTSTAYLQLSSLKSEDTAVYYCARSGFGSSYWYFDVWGQGTLVTVSS
VL: DIQMTQSPSSLSASVGDRVTITCKASQDVSTAVAWYQQKPGKAPKLLIYSASYRYTGVPSRFSGSGSGTDFTLTISSLQPEDFAVYYCQQHYITPLTFGQGTKLEIK
modifications: exatecan-derivative drug-linker
TGI (%) (PDX model #1, Breast, Day 14): 95.2%
TGI (%) (PDX model #2, Lung, Day 14): 68.3%
TGI (%) (PDX model #3, Cholangiocarcinoma, Day 14): 22.2%
TGI (%) (PDX model #4, Pancreatic, Day 14): 21.8%
TGI (%) (PDX model #5, Colorectal, Day 14): 41.7%
TGI (%) (PDX model #6, Breast, Day 14): 92.4%
TGI (%) (PDX model #7, Breast, Day 15): 87.6%
TGI (%) (PDX model #8, Head & neck, Day 14): 57.9%
TGI (%) (PDX model #9, Head & neck, Day 14): 94.0%
TGI (%) (PDX model #10, Lung, Day 14): 97.3%
TGI (%) (PDX model #11, Lung, Day 14): 87.4%
TGI (%) (PDX model #12, Breast, Day 15): 90.0%
TGI (%) (PDX model #13, Lung, Day 14): 62.3%
TGI (%) (PDX model #14, Breast, Day 14): 82.7%
TGI (%) (PDX model #15, Cholangiocarcinoma, Day 14): 46.4%
TGI (%) (PDX model #16, Colorectal, Day 14): 26.0%
TGI (%) (PDX model #17, Breast, Day 14): 56.5%
TGI (%) (PDX model #18, Lung, Day 14): 14.6%
TGI (%) (PDX model #19, Lung, Day 14): 28.1%
TGI (%) (PDX model #20, Lung, Day 14): 82.0%
TGI (%) (PDX model #21, Lung, Day 14): 76.6%
TGI (%) (PDX model #22, Lung, Day 14): 87.9%
TGI (%) (PDX model #23, Lung, Day 14): 4.7%
TGI (%) (PDX model #24, Lung, Day 14): 19.1%
TGI (%) (PDX model #25, Pancreatic, Day 14): 37.9%
TGI (%) (PDX model #26, Pancreatic, Day 13): 62.3%
TGI (%) (PDX model #27, Lung, Day 13): 48.5%
TGI (%) (PDX model #28, Breast, Day 14): 92.6%
TGI (%) (PDX model #29, Breast, Day 14): 97.4%
TGI (%) (PDX model #30, Lung, Day 10): 84.7%
TGI (%) (PDX model #31, Colorectal, Day 14): 58.4%
TGI (%) (PDX model #32, Lung, Day 13): 64.9%
TGI (%) (PDX model #33, Lung, Day 14): 25.0%
TGI (%) (PDX model #34, Lung, Day 13): 89.7%
TGI (%) (PDX model #35, Lung, Day 14): −0.4%
Proportion of PDX models showing TGI of 75% or more (log2[FPKM+1]: hTROP2 >4.0, SLFN11 >1, 21 models): 57%
Proportion of PDX models showing TGI of 75% or more (log2[FPKM+1]: hTROP2 >4.0, SLFN11 >2, 15 models): 60%
Proportion of PDX models showing TGI of 75% or more (log2[FPKM+1]: hTROP2 >4.0, SLFN11 >3, 9 models): 67%
Proportion of PDX models showing TGI of 75% or more (log2[FPKM+1]: hTROP2 >4.0, SLFN11 All models, 32 models): 44%
Proportion of PDX models showing TGI of 75% or more (log2[FPKM+1]: hTROP2 >5.0, SLFN11 >1, 18 models): 56%
Proportion of PDX models showing TGI of 75% or more (log2[FPKM+1]: hTROP2 >5.0, SLFN11 >2, 13 models): 62%
Proportion of PDX models showing TGI of 75% or more (log2[FPKM+1]: hTROP2 >5.0, SLFN11 >3, 7 models): 71%
Proportion of PDX models showing TGI of 75% or more (log2[FPKM+1]: hTROP2 >5.0, SLFN11 All models, 29 models): 41%
Proportion of PDX models showing TGI of 75% or more (log2[FPKM+1]: hTROP2 >6.0, SLFN11 >1, 17 models): 59%
Proportion of PDX models showing TGI of 75% or more (log2[FPKM+1]: hTROP2 >6.0, SLFN11 >2, 12 models): 67%
Proportion of PDX models showing TGI of 75% or more (log2[FPKM+1]: hTROP2 >6.0, SLFN11 >3, 6 models): 83%
Proportion of PDX models showing TGI of 75% or more (log2[FPKM+1]: hTROP2 >6.0, SLFN11 All models, 25 models): 48%
Proportion of PDX models showing TGI of 75% or more (log2[FPKM+1]: hTROP2 >7.0, SLFN11 >1, 11 models): 64%
